The test deals with LDLRs. The experiment in a line: SPR.

In article PMC3198853 one finds Kd data, which are given here for one substance.

Regarding “Tissue-type plasminogen activator (recombinant human tPA, Actilyse) (enzyme)”, the Kd turned out to be 330 nM. That is a sub-micromolar value.
